The source of these data is patent publication US20240116985A1 (published 2024).

Starred links: 1 amine or outer side, 2 acyl side, 3 side chain; linkers in the order of their positions; H or OH if unused. Positions of bridges follow the written chain, without caps; N, C: chain ends. Non-standard residues stand in square brackets, D forms with d. Primed or numbered codes have the meaning given here. PyrS2″ = (S)-3-amino-1-((pent-4-en-1-yloxy)carbonyl)pyrrolidine-3-carboxylic acid (stapling residue), C=CCCCOC(=O)N1CC[C@@](N[*:1])(C(=O)[*:2])C1; B5(4) = 2,2-bis(4-pentenyl)glycine = 2-amino-2-(pent-4-en-1-yl)hept-6-enoic acid (stitching residue), C=CCCCC(CCCC=C)(N[*:1])C(=O)[*:2]; (EtSSPh)AspE = (S)-2-amino-4-oxo-4-(2-(phenyldisulfaneyl)ethoxy)butanoic acid, O=C(C[C@H](N[*:1])C(=O)[*:2])OCCSSc1ccccc1; (EtSSHex)AspE = (S)-2-amino-4-(2-(hexyldisulfaneyl)ethoxy)-4-oxobutanoic acid, CCCCCCSSCCOC(=O)C[C@H](N[*:1])C(=O)[*:2]; B5(3) = 2,2-bis(4-pentenyl)glycine (stitching residue), C=CCCCC(CCCC=C)(N[*:1])C(=O)[*:2]; B5 = 2-amino-2-(pent-4-en-1-yl)hept-6-enoic acid, C=CCCCC(CCCC=C)(N[*:1])C(=O)[*:2]; Phe(3-COOH) = N[C@@H](Cc1cccc(C(=O)O)c1)C(=O)O; 2F3MeF = Cc1cccc(C[C@H](N[*:1])C(=O)[*:2])c1F; Phe(3-Cl) = N[C@@H](Cc1cccc(Cl)c1)C(=O)O; Phe(4-Cl) = N[C@@H](Cc1ccc(Cl)cc1)C(=O)O; Phe(4-NH2) = Nc1ccc(C[C@H](N)C(=O)O)cc1; Phe(2-F) = N[C@@H](Cc1ccccc1F)C(=O)O; Bta = N[C@@H](Cc1csc2ccccc12)C(=O)O; αAllylPro = C=CC[C@@]1(C(=O)O)CCCN1; tBuAla = CC(C)(C)C[C@H](N)C(=O)O; 3Thi = N[C@@H](Cc1ccsc1)C(=O)O; S8 = C=CCCCCCC[C@](C)(N)C(=O)O; hSer = N[C@@H](CCO)C(=O)O

Assay [1] concerns the target T1, full-length beta-Catenin (Uniprot ID P35222) (Homo sapiens (Human), UniProt P35222 1-781).
T1 construct: the AlphaScreen used a Histidine (Nickel Chelate) detection kit, so a His tag is likely but not described; also called B-Catenin; bCat
T1 sequence: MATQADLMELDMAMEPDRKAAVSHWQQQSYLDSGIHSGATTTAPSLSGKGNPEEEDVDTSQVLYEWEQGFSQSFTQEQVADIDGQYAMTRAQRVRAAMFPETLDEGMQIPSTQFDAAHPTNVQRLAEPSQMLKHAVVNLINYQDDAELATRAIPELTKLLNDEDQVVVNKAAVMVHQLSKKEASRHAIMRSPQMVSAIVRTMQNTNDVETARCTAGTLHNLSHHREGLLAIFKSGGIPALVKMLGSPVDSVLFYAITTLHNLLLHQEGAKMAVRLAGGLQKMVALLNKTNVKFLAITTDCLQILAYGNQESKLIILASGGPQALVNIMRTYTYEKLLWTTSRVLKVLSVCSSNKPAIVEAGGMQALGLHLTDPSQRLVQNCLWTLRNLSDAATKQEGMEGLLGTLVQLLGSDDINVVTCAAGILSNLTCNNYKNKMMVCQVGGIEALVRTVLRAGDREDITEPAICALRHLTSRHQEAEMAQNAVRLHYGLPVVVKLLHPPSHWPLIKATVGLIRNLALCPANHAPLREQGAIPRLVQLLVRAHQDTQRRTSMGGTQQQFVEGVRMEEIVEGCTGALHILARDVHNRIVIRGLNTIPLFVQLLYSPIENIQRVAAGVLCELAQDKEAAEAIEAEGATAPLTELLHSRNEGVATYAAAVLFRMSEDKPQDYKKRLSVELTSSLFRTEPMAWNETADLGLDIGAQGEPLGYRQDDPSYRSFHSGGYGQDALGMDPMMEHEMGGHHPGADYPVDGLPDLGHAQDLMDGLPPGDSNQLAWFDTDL
In words: AlphaScreen competition vs biotin-TCF4(10-53) on full-length beta-catenin. The protocol:
Equal volume of the titrated peptide was added to the plate and incubated for 15 minutes at 20° C. Then 4 uL of donor and 4 uL acceptor beads at 10 ug/mL were added to the plate, for a 16 uL reaction pool and protected from light for 60 minutes at 20° C. prior to read. Reads were performed on a CLARIOstar plate reader (BMG Labtech) in duplicate, and data were fitted to a 1:1 binding model with hill slope using an in-house script. All provided concentrations are final concentrations.

The target in assay [2] is T1, full-length beta-Catenin (Uniprot ID …). Nature of the assay: FP competition vs 5FAM-TCF4(10-53) probe on full-length beta-catenin. The protocol: The plate was incubated protected from light for 60 minutes at 20° C. prior to read. Reads were performed on a CLARIOstar plate reader (BMG Labtech) in duplicate, and data were fitted to a 1:1 binding model with hill slope using an in-house script. All provided concentrations are final concentrations.

Another assay addresses T2, B-cat-Halo (UniProt P35222 1-781).
T2 sequence (looked up): T1 sequence
In words: cell-based or functional assay.

In assay [3] the target is T3, B-cat-Halo (beta-catenin HaloTag NanoBRET construct expressed in HEK293 cells) (UniProt P35222 1-781).
T3 sequence (looked up): T1 sequence
Nature of the assay: cell-based or functional assay.

B1: I-291 (peptide)
peptide: XDAXDDAAFVXFWA
modifications: not fully specified; N-terminal acetyl (Ac); C-terminal amide (NH2); PL3 at 1, B5 at 4, S8 at 11; stapled PL3-B5 and B5-S8
notes: Ac-PL3-Asp-Ala-B5-Asp-Asp-Ala-Ala-Phe-Val-S8-Phe-Trp-Ala-NH2; stapled peptide composition
As a reminder, the EC50 is the midpoint of the concentration-response curve. A low value points to greater potency. Take B1: the EC50 in assay [1] was determined as 327 nM; in assay [2], 3130 nM.

B2: I-316 (peptide)
peptide: Ac-[αAllylPro]DA[B5]DDAAFQ[S8]FWA-NH2
modifications: staple 1-4, 4-11
notes: Ac-PL3-Asp-Ala-B5-Asp-Asp-Ala-Ala-Phe-Gln-S8-Phe-Trp-Ala-NH2; stapled peptide composition
As to B2, the EC50 in assay [1] was 136 nM; in assay [2], 3980 nM.

B3: I-292 (peptide)
peptide: XDAXDDAAFVXFWA
modifications: not fully specified; N-terminal acetyl (Ac); C-terminal amide (NH2); PL3 at 1, B5 at 4, S8 at 11; stapled PL3-B5 and B5-S8
notes: as for B1
Turning to B3, the EC50 in assay [1] was 187 nM; in assay [2], 1870 nM.

B4: I-2224 (peptide)
peptide: Ac-[αAllylPro]D[tBuAla][B5(3)]D[Phe(3-COOH)]AAFL[PyrS2″][3Thi][Phe(3-Cl)]Q-NH2
modifications: staple 1-4, 4-11
Regarding B4, in the assay with B-cat-Halo, the “NanoBRET Abs IC50” value worked out at 14.2 µM.

B5: I-1953 (peptide)
peptide: Ac-[αAllylPro][(EtSSPh)AspE][tBuAla][B5(4)]DDAAFL[PyrS2″][3Thi][Bta]Q-NH2
modifications: staple 1-4, 4-11; also: isomer composition, later eluting HPLC peak
Regarding B5, the “NanoBRET Abs IC50” value in assay [3] is > 20 µM.

B6: I-299 (peptide)
peptide: Ac-[αAllylPro]D[hSer][B5(4)]DDAAFQ[S8]F[Bta]A-NH2
modifications: staple 1-4, 4-11
notes: Ac-PL3-Asp-Hse-B5-Asp-Asp-Ala-Ala-Phe-Gln-S8-Phe-BztA-Ala-NH2; stapled peptide composition
As for B6, the EC50 is 189 nM in assay [1] and 1300 nM in assay [2].

B7: I-318 (peptide)
peptide: XDAXDDAAFVXFWQ
modifications: not fully specified; N-terminal acetyl (Ac); C-terminal amide (NH2); PL3 at 1, B5 at 4, S8 at 11, 2FF at 12; stapled PL3-B5 and B5-S8
notes: Ac-PL3-Asp-Ala-B5-Asp-Asp-Ala-Ala-Phe-Val-S8-2FF-Trp-Gln-NH2; stapled peptide composition
In assay [1], B7 showed an EC50 of 121 nM.

B8: I-2226 (peptide)
peptide: Ac-[αAllylPro]D[tBuAla][B5(3)]D[Phe(3-COOH)]AAFL[PyrS2″][2F3MeF][Phe(3-Cl)]S-NH2
modifications: staple 1-4, 4-11
With B8, in the assay with B-cat-Halo, the “NanoBRET Abs IC50” value was 10.6 µM.

B9: I-317 (peptide)
peptide: Ac-[αAllylPro]DA[B5]DDAA[Phe(2-F)]V[S8]FWQ-NH2
modifications: staple 1-4, 4-11
notes: Ac-PL3-Asp-Ala-B5-Asp-Asp-Ala-Ala-2FF-Val-S8-Phe-Trp-Gln-NH2; stapled peptide composition
B9: the concentration for a half-maximal effect (EC50) in assay [1] was 443 nM; in assay [2] it was 5000 nM.

B10: I-1962 (peptide)
peptide: Ac-[αAllylPro]D[tBuAla][B5(4)]D[(EtSSHex)AspE]AAFL[PyrS2″][3Thi][Bta]Q-NH2
modifications: staple 1-4, 4-11
Consider B10, for which the “NanoBRET Abs IC50” value in assay [3] is > 20 µM.

B11: I-294 (peptide)
peptide: Ac-[αAllylPro]DA[B5(4)]DDAAFQ[S8]F[Bta]Q-NH2
modifications: staple 1-4, 4-11
notes: Ac-PL3-Asp-Ala-B5-Asp-Asp-Ala-Ala-Phe-Gln-S8-Phe-BztA-Gln-NH2; stapled peptide composition
B11: the EC50 came to 40 nM in assay [1] and 130 nM in assay [2].

B12: I-315 (peptide)
peptide: XHAXDEAAFVXFWQ
modifications: not fully specified; N-terminal acetyl (Ac); C-terminal amide (NH2); PL3 at 1, B5 at 4, S8 at 11; stapled PL3-B5 and B5-S8
notes: Ac-PL3-His-Ala-B5-Asp-Glu-Ala-Ala-Phe-Val-S8-Phe-Trp-Gln-NH2; stapled peptide composition
In assay [1], B12 showed an EC50 of 9900 nM.

B13: I-1960 (peptide)
peptide: Ac-[αAllylPro][(EtSSHex)AspE][tBuAla][B5(4)]DDAAFL[PyrS2″][3Thi][Bta]Q-NH2
modifications: staple 1-4, 4-11
As to B13, the “NanoBRET Abs IC50” value in assay [3] stood at 20.4 µM.

B14: I-324 (peptide)
peptide: Ac-[αAllylPro]DA[B5(4)]D[Phe(4-NH2)]AAFV[S8]FWQ-NH2
modifications: staple 1-4, 4-11
notes: Ac-PL3-Asp-Ala-B5-Asp-4AmPhe-Ala-Ala-Phe-Val-S8-Phe-Trp-Gln-NH2; stapled peptide composition
In the case of B14, the EC50 in assay [1] amounted to 1740 nM.

B15: I-2222 (peptide)
peptide: Ac-[αAllylPro]D[tBuAla][B5(3)]D[Phe(3-COOH)]AAFL[PyrS2″][2F3MeF][Phe(4-Cl)]S-NH2
modifications: staple 1-4, 4-11
For B15, in the assay with B-cat-Halo, the “NanoBRET Abs IC50” value was determined as 11.7 µM.
